Laboratory results from PMC10135718, “Inhibitory Peptide of Soluble Guanylyl Cyclase/Trx1 Interface Blunts the Dual Redox Signaling Functions of the Complex” (Antioxidants, 2023).

B1: oxidized GC1 (oGC1) (complex, human)
chain 1: MFCTKLKDLKITGECPFSLLAPGQVPNESSEEAAGSSESCKATVPICQDIPEKNIQESLPQRKTSRSRVYLHTLAESICKLIFPEFERLNVALQRTLAKHKIKESRKSLEREDFEKTIAEQAVAAGVPVEVIKESLGEEVFKICYEEDENILGVVGGTLKDFLNSFSTLLKQSSHCQEAGKRGRLEDASILCLDKEDDFLHVYYFFPKRTTSLILPGIIKAAAHVLYETEVEVSLMPPCFHNDCSEFVNQPYLLYSVHMKSTKPSLSPSKPQSSLVIPTSLFCKTFPFHFMFDKDMTILQFGNGIRRLMNRRDFQGKPNFEEYFEILTPKINQTFSGIMTMLNMQFVVRVRRWDNSVKKSSRVMDLKGQMIYIVESSAILFLGSPCVDRLEDFTGRGLYLSDIPIHNALRDVVLIGEQARAQDGLKKRLGKLKATLEQAHQALEEEKKKTVDLLCSIFPCEVAQQLWQGQVVQAKKFSNVTMLFSDIVGFTAICSQCSPLQVITMLNALYTRFDQQCGELDVYKVETIGDAYCVAGGLHKESDTHAVQIALMALKMMELSDEVMSPHGEPIKMRIGLHSGSVFAGVVGVKMPRYCLFGNNVTLANKFESCSVPRKINVSPTTYRLLKDCPGFVFTPRSREELPPNFPSEIPGICHFLDAYQQGTNSKPCFQKKDVEDGNANFLGKASGID
chain 2: MYGFVNHALELLVIRNYGPEVWEDIKKEAQLDEEGQFLVRIIYDDSKTYDLVAAASKVLNLNAGEILQMFGKMFFVFCQESGYDTILRVLGSNVREFLQNLDALHDHLATIYPGMRAPSFRCTDAEKGKGLILHYYSEREGLQDIVIGIIKTVAQQIHGTEIDMKVIQQRNEECDHTQFLIEEKESKEEDFYEDLDRFEENGTQESRISPYTFCKAFPFHIIFDRDLVVTQCGNAIYRVLPQLQPGNCSLLSVFSLVRPHIDISFHGILSHINTVFVLRSKEGLLDVEKLECEDELTGTEISCLRLKGQMIYLPEADSILFLCSPSVMNLDDLTRRGLYLSDIPLHDATRDLVLLGEQFREEYKLTQELEILTDRLQLTLRALEDEKKKTDTLLYSVLPPSVANELRHKRPVPAKRYDNVTILFSGIVGFNAFCSKHASGEGAMKIVNLLNDLYTRFDTLTDSRKNPFVYKVETVGDKYMTVSGLPEPCIHHARSICHLALDMMEIAGQVQVDGESVQITIGIHTGEVVTGVIGQRMPRYCLFGNTVNLTSRTETTGEKGKINVSEYTYRCLMSPENSDPQFHLEHRGPVSMKGKKEPMQVWFLSRKNTGTEETKQDDD
modifications: thiols oxidized with 100 μM diamide (cysteines not mapped) | thiols oxidized with 100 μM diamide (cysteines not mapped)
notes: alpha subunit of soluble guanylyl cyclase GC1, human; beta subunit of soluble guanylyl cyclase GC1, human; same protein as m1, oxidized; runs as high molecular weight multimers on a non-reducing gel; also called multimeric oxidized GC1; source: bought: Enzo life sciences (ALX-201-177-C010); treated with 100 μM diamide on ice for 30 min, excess removed
B2: purified recombinant human soluble guanylyl cyclase (GC1), untreated (complex)
chain 1: B1 chain 1
chain 2: B1 chain 2
notes: alpha subunit of soluble guanylyl cyclase GC1, human; beta subunit of soluble guanylyl cyclase GC1, human; alpha/beta heterodimer as bought; also called untreated GC1; source: bought: Enzo life sciences (ALX-201-177-C010), purified recombinant
B3: oxidized Trx1 (oTrx1) (enzyme, human, UniProt P10599 1-105, looked up)
chain: MVKQIESKTAFQEALDAAGDKLVVVDFSATWCGPCKMIKPFFHSLSEKYSNVIFLEVDVDDCQDVASECEVKCMPTFQFFKKGQKVGEFSGANKEKLEATINELV
modifications: thiols oxidized with 100 μM diamide (the cysteine engaged in the homodimer is not identified)
notes: Thioredoxin 1, human; same protein as m2, oxidized; mostly a dimer on a non-reducing gel; also used here for the endogenous Trx1 of Jurkat T cells in two functional rows; also called oxidized thioredoxin; source: bought: Fitzgerald industries (30R-2985); treated with 100 μM diamide on ice for 30 min, excess removed
B4: recombinant human Thioredoxin 1 (Trx1), untreated (enzyme, UniProt P10599 1-105, looked up)
chain: B3 chain
notes: Thioredoxin 1, human; also called untreated Trx1; source: bought: Fitzgerald industries (30R-2985)

Biological target: the molecule itself
Assay: non-reducing SDS-PAGE with Western blot; purified GC1 or Trx1, untreated, reduced (10 mM DTT) or oxidized (100 μM diamide), excess reagent removed; 12% SDS-PAGE under non-reducing conditions, blots probed with anti-GC1 α and β or anti-Trx1

Binding result, binds:
B1
B2
B3
B4
